Results from PMC9490328, “Characterization and structure of the human lysine-2-oxoglutarate reductase domain, a novel therapeutic target for treatment of glutaric aciduria type 1” (Open Biology, 2022).

Tests used:
[1] = target: T1, 2-aminoadipic semialdehyde synthase (AASS), lysine-2-oxoglutarate reductase (LOR) domain (Homo sapiens, UniProt Q9UDR5); assay: X-ray crystal structure of NEM-alkylated LOR; also activation in enzyme assay and immunoblot with anti-NEM antibody; format: binding
T1 construct: LOR short construct (amino acids 21-451)
T1 sequence (Q9UDR5 21-451): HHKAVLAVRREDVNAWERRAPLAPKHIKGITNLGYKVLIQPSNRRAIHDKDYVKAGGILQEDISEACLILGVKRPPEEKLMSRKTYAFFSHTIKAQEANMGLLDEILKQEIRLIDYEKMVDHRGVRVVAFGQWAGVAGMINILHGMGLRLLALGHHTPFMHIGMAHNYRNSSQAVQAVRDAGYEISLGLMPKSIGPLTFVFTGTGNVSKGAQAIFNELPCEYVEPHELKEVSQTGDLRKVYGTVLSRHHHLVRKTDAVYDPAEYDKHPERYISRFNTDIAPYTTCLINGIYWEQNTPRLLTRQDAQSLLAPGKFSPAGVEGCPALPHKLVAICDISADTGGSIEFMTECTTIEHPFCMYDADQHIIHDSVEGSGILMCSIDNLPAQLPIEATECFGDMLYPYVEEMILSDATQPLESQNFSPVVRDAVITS

[2] = target: T2, 2-aminoadipic semialdehyde synthase (AASS), lysine-2-oxoglutarate reductase (LOR) domain (Homo sapiens, UniProt Q9UDR5); assay: spectrophotometric LOR enzyme assay ([…] nm, NADPH consumption); format: biochemical
T2 construct: recombinant LOR domain (amino acids 21-470)
T2 sequence (Q9UDR5 21-470): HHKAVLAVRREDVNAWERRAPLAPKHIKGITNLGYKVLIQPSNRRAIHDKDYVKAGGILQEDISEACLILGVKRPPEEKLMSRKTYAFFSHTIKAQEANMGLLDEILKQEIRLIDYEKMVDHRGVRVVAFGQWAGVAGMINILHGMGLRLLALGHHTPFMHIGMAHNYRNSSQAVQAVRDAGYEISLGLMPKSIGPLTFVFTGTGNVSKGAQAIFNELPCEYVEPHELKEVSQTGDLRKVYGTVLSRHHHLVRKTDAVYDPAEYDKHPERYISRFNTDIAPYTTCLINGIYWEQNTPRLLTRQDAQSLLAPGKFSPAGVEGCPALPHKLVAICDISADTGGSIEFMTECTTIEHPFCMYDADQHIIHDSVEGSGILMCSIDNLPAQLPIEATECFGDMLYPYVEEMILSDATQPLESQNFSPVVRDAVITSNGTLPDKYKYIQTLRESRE

[3] = substrate: NCCCC[C@H](N)C(=O)O; assay: steady-state kinetics, forward reaction (Km); format: biochemical, Homo sapiens; conditions: NADPH; pH 8.8
purified protein [4] = substrate: NC(=O)C1=CN([C@@H]2O[C@H](COP(=O)(O)OP(=O)(O)OC[C@H]3O[C@@H](n4cnc5c(N)ncnc54)[C@H](OP(=O)(O)O)[C@@H]3O)[C@@H](O)[C@H]2O)C=CC1; assay: purified protein; conditions: predicted: Ser […] and Arg […] interact with the additional phosphate of NADPH; pH 8.8; varied: cofactor
purified protein [5] = substrate: NC(=O)c1ccc[n+]([C@@H]2O[C@H](COP(=O)(O)OP(=O)(O)OC[C@H]3O[C@@H](n4cnc5c(N)ncnc54)[C@H](OP(=O)(O)O)[C@@H]3O)[C@@H](O)[C@H]2O)c1; assay: purified protein; conditions: pH 8.8; varied: cofactor
purified protein [6] = substrate: O=C(O)CCC(=O)C(=O)O; assay: purified protein; conditions: NADPH; pH 8.8
[7] = substrate: N[C@@H](CCCCN[C@@H](CCC(=O)O)C(=O)O)C(=O)O; assay: steady-state kinetics, reverse reaction (Km); also inhibits the forward LOR reaction in AASS-Myc-DDK lysates; format: biochemical, Homo sapiens; conditions: NADP+ consistent with its ability to compete with lysine and 2-oxoglutarate; pH 8.8

## CCN1C(=O)C=CC1=O [NEM, N-ethylmaleimide]
[1]
  X-ray crystal structure of NEM-alkylated LOR; also activation in enzyme assay an: crystal structure of NEM-alkylated LOR short construct (PDB 8E8V)

## NC[C@@H]1CCCN1C(=O)c1ccc2c(c1)CCC(=O)N2 [S-105]
[2]
  IC50: 142 µM

B1: 2-aminoadipic semialdehyde synthase (AASS), lysine-2-oxoglutarate reductase (LOR) domain (Homo sapiens) (protein)
chain: T2 sequence (Q9UDR5 21-470)
notes: isolated LOR (amino acids 21-470)
[3]
  Km: 24000 ± 2000 µM
  Vmax: 28.8 µmol/min/mg
Purified protein [4]
  Km: 390 ± 20 µM
  Vmax: 65.4 µmol/min/mg
Purified protein [5]
  Km: 420 ± 10 µM
  Vmax: 525 µmol/min/mg
Purified protein [6]
  Km: 1400 ± 100 µM
  Vmax: 57.2 µmol/min/mg
[7]
  Km: 1700 ± 100 µM
  Vmax: 443 µmol/min/mg
